Data taken from patent US20110111406A1 (published 2011).
Read-outs that look alike come from different tables or passages of the source.

T1: recombinant soluble human IL-6 receptor (SR344) (human, UniProt P08887 20-344)
T1 construct: In the 'membrane-type IL-6 receptor' Biacore assays the same SR344 was biotinylated and immobilized via streptavidin; also called soluble IL-6 receptor; membrane-type IL-6 receptor (as biotinylated SR344 immobilized on the sensor chip)
T1 sequence (looked up): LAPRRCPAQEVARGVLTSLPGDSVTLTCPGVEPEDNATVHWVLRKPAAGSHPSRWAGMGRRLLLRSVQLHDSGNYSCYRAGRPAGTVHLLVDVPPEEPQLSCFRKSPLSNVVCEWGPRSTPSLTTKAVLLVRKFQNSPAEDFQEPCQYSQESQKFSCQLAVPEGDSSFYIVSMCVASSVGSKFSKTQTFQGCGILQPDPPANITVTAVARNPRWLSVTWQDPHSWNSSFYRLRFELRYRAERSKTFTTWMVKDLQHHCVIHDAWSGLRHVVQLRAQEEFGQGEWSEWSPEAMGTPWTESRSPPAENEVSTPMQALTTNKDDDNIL


What was measured:
[1] = molecular target: T1, recombinant soluble human IL-6 receptor …; test: Biacore T100, biotinylated SR344 immobilized via streptavidin (membrane-type IL-6 receptor model), antibody as analyte; ratio of kd at pH 5.8 to pH 7.4
Procedure: (§1) Binding to the membrane-type IL-6 receptor was evaluated by evaluating binding to the IL-6 receptor immobilized on a sensor chip. SR344 was biotinylated in accordance with a method known among persons with ordinary skill in the art, and the biotinylated SR344 was immobilized on the sensor chip via streptavidin using the affinity between streptavidin and biotin. All the measurements were carried out at 37° C. The mobile phase buffer was 10 mM MES (pH 5.8), 150 mM NaCl and 0.05% Tween 20.
(§2) The pH-dependently-binding clones were injected under the condition of pH 7.4 to allow them to bind to SR344, and then, the pH-dependent dissociation of each clone at the pH of the mobile phase, pH 5.8, was observed. The results are shown in FIG. 21 (results for Fv1-M71, Fv1-M73, Fv3-M71, and Fv3-M73 are shown in FIG. 21, while results for other clones are shown in FIGS. 17 and 19). Analyses were carried out in the same manner as in Example 10 and the pH dependencies of the dissociation rate constants of all of the eleven types of clones are shown in Table 12.

[2] = molecular target: T1, recombinant soluble human IL-6 receptor …; test: as above; remark: listed apart in the source
Procedure: as §1, §2

Binder	kd(pH 5.8)/kd(pH 7.4) [1]	kd(pH 5.8)/kd(pH 7.4) [2]
Fv4-M58 (antibody, also called VH3-M58/VL3-CK) heavy: QVQLQESGPGLVKPSETLSLTCAVSGHSISHDHAWSWVRQPPGEGLEWIGFISYSGITNYNPSLQGRVTISRDNSKNTLYLQMNSLRAEDTAVYYCARSLARTTAMDYWGEGTLVTVSSASTKGPSVFPLAPSSKSTSGGTAALGCLVKDYFPEPVTVSWNSGALTSGVHTFPAVLQSSGLYSLSSVVTVPSSNFGTQTYTCNVDHKPSNTKVDKTVERKSCVECPPCPAPPVAGPSVFLFPPKPKDTLMISRTPEVTCVVVDVSQEDPEVQFNWYVDGVEVHNAKTKPREEQFNSTFRVVSVLTVVHQDWLNGKEYKCKVSNKGLPAPIEKTISKTKGQPREPQVYTLPPSQEEMTKNQVSLTCLVKGFYPSDIAVEWESNGQPENNYKTTPPMLDSDGSFFLYSKLTVDKSRWQEGNVFSCSVMHEALHNHYTQKSLSLSP light: DIQMTQSPSSLSASVGDSVTITCQASTDISSHLNWYQQKPGKAPELLIYYGSHLLSGVPSRFSGSGSGTDFTFTISSLEAEDAATYYCGQGNRLPYTFGQGTKVEIERTVAAPSVFIFPPSDEQLKSGTASVVCLLNNFYPREAKVQWKVDNALQSGNSQESVTEQDSKDSTYSLSSTLTLSKADYEKHKVYACEVTHQGLSSPVTKSFNRGEC	17.6	17.6
Fv1-M71 (antibody, human IgG2, kappa, also called VH2-M71/VL2-CK) heavy: QVQLQESGPGLVKPSETLSLTCAVSGYSISHDHAWSWVRQPPGEGLEWIGHISYSGITNYNPHLQDRVTISRDTSKNQFSLKLSSVTAADTAVYYCARFLARITAHDHWGEGTLVTVSSASTKGPSVFPLAPCSRSTSESTAALGCLVKDYFPEPVTVSWNSGALTSGVHTFPAVLQSSGLYSLSSVVTVPSSNFGTQTYTCNVDHKPSNTKVDKTVERKCCVECPPCPAPPVAGPSVFLFPPKPKDTLMISRTPEVTCVVVDVSHEDPEVQFNWYVDGVEVHNAKTKPREEQFNSTFRVVSVLTVVHQDWLNGKEYKCKVSNKGLPAPIEKTISKTKGQPREPQVYTLPPSREEMTKNQVSLTCLVKGFYPSDIAVEWESNGQPENNYKTTPPMLDSDGSFFLYSKLTVDKSRWQQGNVFSCSVMHEALHAHYTQKSLSLSPGK light: DIQMTQSPSSLSASVGDSVTITCQASRDISSHLNWYQQKPGKAPELLIYYGSHLESGVPSRFSGSGSGTDFTFTISSLEAEDAATYYCGQGNRLPYTFGQGTKVEIERTVAAPSVFIFPPSDEQLKSGTASVVCLLNNFYPREAKVQWKVDNALQSGNSQESVTEQDSKDSTYSLSSTLTLSKADYEKHKVYACEVTHQGLSSPVTKSFNRGEC		11.3
Fv1-M73 (antibody, also called VH2-M73/VL2-CK) heavy: QVQLQESGPGLVKPSETLSLTCAVSGYSISHDHAWSWVRQPPGEGLEWIGHISYSGITNYNPHLQDRVTISRDTSKNQFSLKLSSVTAADTAVYYCARFLARITAHDHWGEGTLVTVSSASTKGPSVFPLAPSSKSTSGGTAALGCLVKDYFPEPVTVSWNSGALTSGVHTFPAVLQSSGLYSLSSVVTVPSSNFGTQTYTCNVDHKPSNTKVDKTVERKSCVECPPCPAPPVAGPSVFLFPPKPKDTLMISRTPEVTCVVVDVSQEDPEVQFNWYVDGVEVHNAKTKPREEQFNSTFRVVSVLTVVHQDWLNGKEYKCKVSNKGLPAPIEKTISKTKGQPREPQVYTLPPSQEEMTKNQVSLTCLVKGFYPSDIAVEWESNGQPENNYKTTPPMLDSDGSFFLYSKLTVDKSRWQEGNVFSCSVMHEALHAHYTQKSLSLSP light: DIQMTQSPSSLSASVGDSVTITCQASRDISSHLNWYQQKPGKAPELLIYYGSHLESGVPSRFSGSGSGTDFTFTISSLEAEDAATYYCGQGNRLPYTFGQGTKVEIERTVAAPSVFIFPPSDEQLKSGTASVVCLLNNFYPREAKVQWKVDNALQSGNSQESVTEQDSKDSTYSLSSTLTLSKADYEKHKVYACEVTHQGLSSPVTKSFNRGEC		8.8
Fv3-M71 (antibody, human IgG2, kappa, also called VH4-M71/VL1-CK) heavy: QVQLQESGPGLVKPSETLSLTCAVSGHSISHDHAWSWVRQPPGEGLEWIGFISYSGITNYNPTLQGRVTISRDNSKNTLYLQMNSLRAEDTAVYYCARSLARTTAMDYWGEGTLVTVSSASTKGPSVFPLAPCSRSTSESTAALGCLVKDYFPEPVTVSWNSGALTSGVHTFPAVLQSSGLYSLSSVVTVPSSNFGTQTYTCNVDHKPSNTKVDKTVERKCCVECPPCPAPPVAGPSVFLFPPKPKDTLMISRTPEVTCVVVDVSHEDPEVQFNWYVDGVEVHNAKTKPREEQFNSTFRVVSVLTVVHQDWLNGKEYKCKVSNKGLPAPIEKTISKTKGQPREPQVYTLPPSREEMTKNQVSLTCLVKGFYPSDIAVEWESNGQPENNYKTTPPMLDSDGSFFLYSKLTVDKSRWQQGNVFSCSVMHEALHAHYTQKSLSLSPGK light: DIQMTQSPSSLSASVGDSVTITCQASRDISSHLNWYQQKPGKAPELLIYYGSHLLSGVPSRFSGSGSGTDFTFTISSLEAEDAATYYCGQGNRLPYTFGQGTKVEIERTVAAPSVFIFPPSDEQLKSGTASVVCLLNNFYPREAKVQWKVDNALQSGNSQESVTEQDSKDSTYSLSSTLTLSKADYEKHKVYACEVTHQGLSSPVTKSFNRGEC		10.7
Fv4-M73 (antibody, also called VH3-M73/VL3-CK) heavy: QVQLQESGPGLVKPSETLSLTCAVSGHSISHDHAWSWVRQPPGEGLEWIGFISYSGITNYNPSLQGRVTISRDNSKNTLYLQMNSLRAEDTAVYYCARSLARTTAMDYWGEGTLVTVSSASTKGPSVFPLAPSSKSTSGGTAALGCLVKDYFPEPVTVSWNSGALTSGVHTFPAVLQSSGLYSLSSVVTVPSSNFGTQTYTCNVDHKPSNTKVDKTVERKSCVECPPCPAPPVAGPSVFLFPPKPKDTLMISRTPEVTCVVVDVSQEDPEVQFNWYVDGVEVHNAKTKPREEQFNSTFRVVSVLTVVHQDWLNGKEYKCKVSNKGLPAPIEKTISKTKGQPREPQVYTLPPSQEEMTKNQVSLTCLVKGFYPSDIAVEWESNGQPENNYKTTPPMLDSDGSFFLYSKLTVDKSRWQEGNVFSCSVMHEALHAHYTQKSLSLSP light: DIQMTQSPSSLSASVGDSVTITCQASTDISSHLNWYQQKPGKAPELLIYYGSHLLSGVPSRFSGSGSGTDFTFTISSLEAEDAATYYCGQGNRLPYTFGQGTKVEIERTVAAPSVFIFPPSDEQLKSGTASVVCLLNNFYPREAKVQWKVDNALQSGNSQESVTEQDSKDSTYSLSSTLTLSKADYEKHKVYACEVTHQGLSSPVTKSFNRGEC	10.1	10.1
Fv4-IgG2 (antibody, also called Fv4-IgG2ΔGK; VH3-IgG2ΔGK/VL3-CK) heavy: QVQLQESGPGLVKPSETLSLTCAVSGHSISHDHAWSWVRQPPGEGLEWIGFISYSGITNYNPSLQGRVTISRDNSKNTLYLQMNSLRAEDTAVYYCARSLARTTAMDYWGEGTLVTVSSASTKGPSVFPLAPCSRSTSESTAALGCLVKDYFPEPVTVSWNSGALTSGVHTFPAVLQSSGLYSLSSVVTVPSSNFGTQTYTCNVDHKPSNTKVDKTVERKCCVECPPCPAPPVAGPSVFLFPPKPKDTLMISRTPEVTCVVVDVSHEDPEVQFNWYVDGVEVHNAKTKPREEQFNSTFRVVSVLTVVHQDWLNGKEYKCKVSNKGLPAPIEKTISKTKGQPREPQVYTLPPSREEMTKNQVSLTCLVKGFYPSDIAVEWESNGQPENNYKTTPPMLDSDGSFFLYSKLTVDKSRWQQGNVFSCSVMHEALHNHYTQKSLSLSP light: DIQMTQSPSSLSASVGDSVTITCQASTDISSHLNWYQQKPGKAPELLIYYGSHLLSGVPSRFSGSGSGTDFTFTISSLEAEDAATYYCGQGNRLPYTFGQGTKVEIERTVAAPSVFIFPPSDEQLKSGTASVVCLLNNFYPREAKVQWKVDNALQSGNSQESVTEQDSKDSTYSLSSTLTLSKADYEKHKVYACEVTHQGLSSPVTKSFNRGEC	17	17
Fv3-M73 (antibody, also called VH4-M73/VL1-CK) heavy: QVQLQESGPGLVKPSETLSLTCAVSGHSISHDHAWSWVRQPPGEGLEWIGFISYSGITNYNPTLQGRVTISRDNSKNTLYLQMNSLRAEDTAVYYCARSLARTTAMDYWGEGTLVTVSSASTKGPSVFPLAPSSKSTSGGTAALGCLVKDYFPEPVTVSWNSGALTSGVHTFPAVLQSSGLYSLSSVVTVPSSNFGTQTYTCNVDHKPSNTKVDKTVERKSCVECPPCPAPPVAGPSVFLFPPKPKDTLMISRTPEVTCVVVDVSQEDPEVQFNWYVDGVEVHNAKTKPREEQFNSTFRVVSVLTVVHQDWLNGKEYKCKVSNKGLPAPIEKTISKTKGQPREPQVYTLPPSQEEMTKNQVSLTCLVKGFYPSDIAVEWESNGQPENNYKTTPPMLDSDGSFFLYSKLTVDKSRWQEGNVFSCSVMHEALHAHYTQKSLSLSP light: DIQMTQSPSSLSASVGDSVTITCQASRDISSHLNWYQQKPGKAPELLIYYGSHLLSGVPSRFSGSGSGTDFTFTISSLEAEDAATYYCGQGNRLPYTFGQGTKVEIERTVAAPSVFIFPPSDEQLKSGTASVVCLLNNFYPREAKVQWKVDNALQSGNSQESVTEQDSKDSTYSLSSTLTLSKADYEKHKVYACEVTHQGLSSPVTKSFNRGEC		10.9
